According to patent publication US6368811 (VLAAMS INTERUNIVERSITAIR INSTITUUT VOOR BIOTECHNOLOGIE, dated 2002):

B1: GST-sycl M92 (sycl sequence starting at M92) fusion protein (other)
chain: MVAPVTGNDVGIRRAEIKQGIREVILCKDQDGKIGLRLKSIDNGIFVQLVQANSPASLVGLRFGDQVLQINGENCAGWSSDKAHKVLKQAFGEKITMTIRDRPFERTITMHKDSTGHVGFIFKNGKITSIVKDSSAARNGLLTEHNICEINGQNVIGLKDSQIADILSTSGTVVTITIMPAFIFEHIIKRMAPSIMKSLMDHTIPEV
notes: Expressed in E. coli BL21; not shown: glutathione S-transferase (GST) as encoded by vector pGEX-5X-2
B2: first PDZ domain of sycl alone fused to Gal4 activating domain (other, not shown: large carriers)
chain: VGIRRAEIKQGIREVILCKDQDGKIGLRLKSIDNGIFVQLVQANSPASLVGLRFGDQVLQINGENCAGWSSDKAHKVLKQAFGEKITMTIRDR
notes: also called PDZ-1 alone; either of the two PDZ domains alone
B3: N-terminal domain of sycl alone fused to Gal4 activating domain (other, not shown: large carriers)
chain: MSLYPSLEDLKVDKVIQAQTAFSANPANPAILSEASAPIPHDGNLYPRLYPELSQYMGLSLNEEEIRASVAVVSGAPLQGQLVARPSSINYMVAPVTGNDVGIRRAEIKQGIR
notes: also called The N-terminal domain alone
B4: second PDZ domain of sycl alone fused to Gal4 activating domain (other, not shown: large carriers)
chain: PFERTITMHKDSTGHVGFIFKNGKITSIVKDSSAARNGLLTEHNICEINGQNVIGLKDSQIADILSTSGTVVTITIMPAFI
notes: also called PDZ-2 alone; either of the two PDZ domains alone

Key:
ligand blot = target: the molecule itself; test: ligand blot
[1] = target: T1, GST (glutathione S-transferase) itself (UniProt P08515 1-218 = GST); test: ligand blot
T1 construct: Control; also called isolated GST-moiety
T1 sequence (P08515 whole entry): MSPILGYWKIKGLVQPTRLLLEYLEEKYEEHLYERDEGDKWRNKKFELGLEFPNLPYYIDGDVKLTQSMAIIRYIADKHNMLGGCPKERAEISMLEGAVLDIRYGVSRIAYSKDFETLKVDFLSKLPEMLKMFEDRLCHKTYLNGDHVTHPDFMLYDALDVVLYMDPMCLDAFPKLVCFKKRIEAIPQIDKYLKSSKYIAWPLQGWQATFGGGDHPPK

[2] = target: T2, syndecan-2 full length cytoplasmic domain fused to the Gal4 DNA-binding domain (UniProt P04386 1-147; P34741 170-201); test: yeast two-hybrid
T2 construct: also called Gal4-syndecan bait
Source text: (§1) The yeast two-hybrid system (Chien et al, 1991; P.N.A.S., 88, 9578–9582) was used to identify the domains of sycl and the residues in the syndecan cytoplasmic domains that are responsible for the syndecan-sycl interaction. Different parts of the original clone (3p11) and of the sycl cDNA were subcloned in the pGAD10 vector (Clontech Laboratories), to code for fusions between the activating domain of Gal4 (Gal4 AD) and various full length, truncated, deleted, point-mutated, or epitope-tagged versions of sycl. […] But a requirement for paired PDZ domains (for instance two PDZ1 or two PDZ2 domains) has also been observed for the interactions of the GRIP adaptor protein with AMPA receptors 12 and the interaction of hDlg with the cytoplasmic domain of the Shaker-type K+channel.
(§2) Baits, comprising at least a cytoplasmic domain FYA (corresponds to Phe-Tyr-Ala) as C-terminal sequence of syndecans fused in frame to the DNA-binding domain of Gal4, were constructed by PCR, using the BamHI/SalI restriction sites of the pAS2 vector (Clontech Laboratories), and used to screen a human liver cDNA library (Clontech Laboratories) cloned in pGAD10. The pAS2 plasmids and library were cotransfected in CG1945 yeast cells, and positive clones were selected on triple minus plates (Leu-, Trp-, His-) and assayed for b-galactosidase activity. Positive cDNA clones were cotransfected with all four bait vectors and with the original pAS2 vector cells to confirm the interaction.

[3] = target: T3, syndecan-3 full length cytoplasmic domain fused to the Gal4 DNA-binding domain (UniProt P04386 1-147; O75056 410-442); test: yeast two-hybrid
T3 construct: also called Gal4-syndecan bait
Source text: as §1, §2

Row | Binder | binding result (ligand blot) | binding result [1] | binding result [2] | binding result [3]
1 | B1 | no binding | no binding | – | –
2 | B2 | – | – | no binding | no binding
3 | B3 | – | – | no binding | no binding
4 | B4 | – | – | no binding | no binding
